Patent publication US9982287B2, “Enterokinase cleavable polypeptides” (Novo Nordisk A/S, priority 2013, dated 2018)
No end group written: not given here. *: point of attachment. Dnp = O=[N+]([O-])c1ccc(*)c([N+](=O)[O-])c1; 2Abz = Nc1ccccc1C(=O)O

Experiments:
[1] = target: T1, Enterokinase bovine light chain variant (C112A, L134K, I135K) (Bos taurus, UniProt P98072, C912A/I935K/L934K); assay: EK-kinetics_2: initial rates of Enterokinase hydrolysis of full length GLP-1 with an N-terminal extension (UPLC); assay type: biochemical; settings: Z1 = entire [Arg34]GLP-1(9-37), N-terminal extension Z2; slowest D4K site in this set = 100%; initial substrate 1 mg/ml, pH 8.5
T1 construct: the bovine light chain variant (C112A, L134K, I135K) as described in WO2013/092855A1; made in house
Experimental: Method: EK-kinetics_2 • EK-kinetics_2 was performed by calculating initial rates of hydrolysis of full length GLP-1 with an N-terminal extension. Substrate concentrations were in the range 150-300 μM. The hydrolysis reaction was started by adding an amount of enterokinase giving a final concentration of 9.5 nM. Samples were taken after 6.2 min, 18.7 min, 43.7 min, 86.3 min, 151.3 min, and 243.8 min and quenched by a 1+9 dilution into 5% acetic acid. A suitable method was used on a Waters iClass UPLC to separate and individually quantify remaining substrate and formed product on an analytical reversed-phase column by integrating peak areas. An equation of the following form was fitted to the raw data: […]
wherein t is time, cs0 is initial substrate concentration, cE is enzyme concentration, cPt is product concentration at time t, cSt is substrate concentration at time t, kcat and Km are hydrolysis parameters, and Ki is product inhibition constant. A constant Ki of 0.1 μM was used for all reactions. Initial hydrolysis rates were calculated based on the parameters determined for a initial substrate concentration of 1 mg/ml for all peptides. All reactions were performed in 50 mM Tris buffer, 1 mM EDTA, pH 8.5.
(§1) • The Enterokinase enzymes used for examples herein was the bovine light chain variant (C112A, L134K, I135K) as described in WO2013/092855A1.

[2] = target: T1, Enterokinase bovine light chain variant (C112A, L134K, I135K); assay: EK-kinetics_1: initial rates of Enterokinase hydrolysis of intramolecularly quenched fluorogenic peptides; assay type: biochemical; settings: Z1 = HAEGT, X6 absent; for Activity (%): relative Enterokinase cleavage rate of reference substrates: reference EK-sites, normalised to substrate with D4K site = 100%
Experimental: These peptide substrates have the following general structure: Z2*-X6-X5-X4-GDR-Z1* Formula (II) • wherein • X6-X5-X4 have the same meaning as in formula (I) (each being an amino acid, however X6 being optional), • Z2 is Lys(Dnp) and • Z1* is Z1-Lys(Abz)amide, where Z1 is as defined in formula (I). • SPPS_I was performed on a Multipep RSi synthesizer from Intavis Bioanalytical Instruments AG (Koeln, Germany) at 3-μmol scale in parallel using 2.5 fold excess of Fmoc-amino acids (300 mM in NMP with 300 mM Oxyma Pure®) relative to resin loading e.g. Rinkamide-Chematrix (0.5 mmol/g). Fmoc-deprotection was performed using 20% piperidine in NMP. Coupling was performed using 1:1:1:1 amino acid/Oxyma Pure®/DIC/collidine in NMP. All amino acids were “double or triple coupled”, meaning that after the first coupling (60 min), the resin is drained and more reagents are added (amino acid, Oxyma Pure®, DIC, and collidine), and the mixture allowed to react again (60 min).
Method: EK-Kinetics_1 • EK-kinetics_1 was performed by measuring initial rates of hydrolysis of intramolecularly quenched fluorogenic peptides: Lys(Dnp)-peptide-Lys(Abz)amide according to formula (II). After measuring the background fluorescence of peptides, generally at a substrate concentration in the range of 1 to 50 μM, initial rates of hydrolysis was measured by addition of purified enterokinase enzyme at a concentration enabling reading the initial rate of hydrolysis, i.e. less than 5% hydrolysis in 30 min. Typically an enzyme concentration of 1 to 10 nM may be used. After up to one hour of hydrolysis additional enzyme was added to enable measurement of the fluorescence level at total hydrolysis. Hydrolysis rates were generally measured in 50 mM MOPS buffer, 1 mM EDTA, pH 7.5 at 25° C. using a Perkin Elmer Enspire fluorescence plate reader using 320 nm for excitation and 420 nm for emission.
as §1

T1 sequence (P98072 801-1035 C912A/L934K/I935K): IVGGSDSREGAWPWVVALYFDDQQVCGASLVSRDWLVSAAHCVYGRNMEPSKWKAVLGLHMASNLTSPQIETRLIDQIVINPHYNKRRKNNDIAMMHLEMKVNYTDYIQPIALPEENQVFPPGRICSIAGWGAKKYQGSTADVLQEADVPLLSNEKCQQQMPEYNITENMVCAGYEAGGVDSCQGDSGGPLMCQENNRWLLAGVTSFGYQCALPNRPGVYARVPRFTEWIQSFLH

| Substance | Activity (%): relative Enterokinase cleavage rate of reference substrates [2] | other results |
| --- | --- | --- |
| DVKPGQPLYDEGDR-[Arg34]GLP-1(9-37) (DVKPGQPLYDEGDREGTFTSDVSSYLEGQAAKEFIAWLVRGRG; Enterokinase cleavable polypeptide) [Example 119] | – | Activity (%): relative Enterokinase cleavage rate [1]: 707% |
| Lys(Dnp)-AEGDR-HAEGT-Lys(Abz)amide (K(Dnp)AEGDRHAEGTK(2Abz)-NH2; N-terminus assumed; SMILES C[C@H](NC(=O)[C@H](Cc1c[nH]cn1)NC(=O)[C@H](CCCNC(=N)N)NC(=O)[C@H](CC(=O)O)NC(=O)CNC(=O)[C@H](CCC(=O)O)NC(=O)[C@H](C)NC(=O)[C@@H](N)CCCCNc1ccc([N+](=O)[O-])cc1[N+](=O)[O-])C(=O)N[C@@H](CCC(=O)O)C(=O)NCC(=O)N[C@H](C(=O)N[C@@H](CCCCNC(=O)c1ccccc1N)C(N)=O)[C@@H](C)O) [Example 1] | – | Activity (%): relative Enterokinase cleavage rate ([2]; initial rate normalised to substrate with D4K site = 100%): 382% |
| Lys(Dnp)-INDDRHAEGT-Lys(Abz)amide (K(Dnp)INDDRHAEGTK(2Abz)-NH2; N-terminus assumed; SMILES CC[C@H](C)[C@H](NC(=O)[C@@H](N)CCCCNc1ccc([N+](=O)[O-])cc1[N+](=O)[O-])C(=O)N[C@@H](CC(N)=O)C(=O)N[C@@H](CC(=O)O)C(=O)N[C@@H](CC(=O)O)C(=O)N[C@@H](CCCNC(=N)N)C(=O)N[C@@H](Cc1c[nH]cn1)C(=O)N[C@@H](C)C(=O)N[C@@H](CCC(=O)O)C(=O)NCC(=O)N[C@H](C(=O)N[C@@H](CCCCNC(=O)c1ccccc1N)C(N)=O)[C@@H](C)O) [Example 112] | 126% | – |
| Lys(Dnp)-IMGDRHAEGT-Lys(Abz)amide (K(Dnp)IMGDRHAEGTK(2Abz)-NH2; N-terminus assumed; SMILES CC[C@H](C)[C@H](NC(=O)[C@@H](N)CCCCNc1ccc([N+](=O)[O-])cc1[N+](=O)[O-])C(=O)N[C@@H](CCSC)C(=O)NCC(=O)N[C@@H](CC(=O)O)C(=O)N[C@@H](CCCNC(=N)N)C(=O)N[C@@H](Cc1c[nH]cn1)C(=O)N[C@@H](C)C(=O)N[C@@H](CCC(=O)O)C(=O)NCC(=O)N[C@H](C(=O)N[C@@H](CCCCNC(=O)c1ccccc1N)C(N)=O)[C@@H](C)O) [Example 111] | 125% | – |
